Assay results published in PMC10182041 (2023).
Where no end group is shown, it is not given here.

Key:
[1] = biological target: T1, Msi3, the sole Hsp110 of Candida albicans (Candida albicans, UniProt Q96VB9 1-701); test: FP; +2H (100 µM)
T1 chain: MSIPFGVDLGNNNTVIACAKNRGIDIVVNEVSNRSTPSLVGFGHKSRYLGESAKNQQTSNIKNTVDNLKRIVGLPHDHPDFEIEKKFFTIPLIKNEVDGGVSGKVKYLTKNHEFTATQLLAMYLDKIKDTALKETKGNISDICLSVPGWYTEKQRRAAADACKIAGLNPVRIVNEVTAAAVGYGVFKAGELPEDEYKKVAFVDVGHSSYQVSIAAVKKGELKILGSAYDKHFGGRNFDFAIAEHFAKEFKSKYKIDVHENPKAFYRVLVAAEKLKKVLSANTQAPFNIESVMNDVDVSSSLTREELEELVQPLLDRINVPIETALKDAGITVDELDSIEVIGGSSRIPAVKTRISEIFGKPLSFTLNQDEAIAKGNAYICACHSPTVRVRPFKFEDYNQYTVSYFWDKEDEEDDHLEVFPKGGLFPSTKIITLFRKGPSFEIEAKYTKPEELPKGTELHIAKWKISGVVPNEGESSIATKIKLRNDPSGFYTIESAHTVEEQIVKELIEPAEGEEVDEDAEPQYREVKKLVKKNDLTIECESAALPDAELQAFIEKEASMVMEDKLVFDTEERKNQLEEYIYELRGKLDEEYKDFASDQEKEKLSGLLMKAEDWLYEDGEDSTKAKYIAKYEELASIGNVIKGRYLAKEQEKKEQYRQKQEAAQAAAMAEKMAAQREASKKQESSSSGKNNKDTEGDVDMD

[2] = biological target: T1, Msi3, the sole Hsp110 of Candida …; test: FP

B1: TRP2-181 peptide labeled with a fluorescein at the N-terminus (peptide)
chain: fluorescein-VYDFFVWL
Kd [1]: 5.45 µM | Kd [2]: 0.65 µM
